From paper PMC5599796, “Structural insights into transcription initiation by yeast RNA polymerase I” (The EMBO Journal, 2017)

T1: A135 (S. cerevisiae (endogenous in strain …, UniProt P22138 1-1203))
T1 construct: A135, second largest subunit of yeast RNA polymerase I; Stood in the assay as a subunit of Pol I within the PIC; also called second largest subunit of Pol I; source: purified from S. cerevisiae strain SC1613 as a subunit of Pol I
T1 sequence (looked up): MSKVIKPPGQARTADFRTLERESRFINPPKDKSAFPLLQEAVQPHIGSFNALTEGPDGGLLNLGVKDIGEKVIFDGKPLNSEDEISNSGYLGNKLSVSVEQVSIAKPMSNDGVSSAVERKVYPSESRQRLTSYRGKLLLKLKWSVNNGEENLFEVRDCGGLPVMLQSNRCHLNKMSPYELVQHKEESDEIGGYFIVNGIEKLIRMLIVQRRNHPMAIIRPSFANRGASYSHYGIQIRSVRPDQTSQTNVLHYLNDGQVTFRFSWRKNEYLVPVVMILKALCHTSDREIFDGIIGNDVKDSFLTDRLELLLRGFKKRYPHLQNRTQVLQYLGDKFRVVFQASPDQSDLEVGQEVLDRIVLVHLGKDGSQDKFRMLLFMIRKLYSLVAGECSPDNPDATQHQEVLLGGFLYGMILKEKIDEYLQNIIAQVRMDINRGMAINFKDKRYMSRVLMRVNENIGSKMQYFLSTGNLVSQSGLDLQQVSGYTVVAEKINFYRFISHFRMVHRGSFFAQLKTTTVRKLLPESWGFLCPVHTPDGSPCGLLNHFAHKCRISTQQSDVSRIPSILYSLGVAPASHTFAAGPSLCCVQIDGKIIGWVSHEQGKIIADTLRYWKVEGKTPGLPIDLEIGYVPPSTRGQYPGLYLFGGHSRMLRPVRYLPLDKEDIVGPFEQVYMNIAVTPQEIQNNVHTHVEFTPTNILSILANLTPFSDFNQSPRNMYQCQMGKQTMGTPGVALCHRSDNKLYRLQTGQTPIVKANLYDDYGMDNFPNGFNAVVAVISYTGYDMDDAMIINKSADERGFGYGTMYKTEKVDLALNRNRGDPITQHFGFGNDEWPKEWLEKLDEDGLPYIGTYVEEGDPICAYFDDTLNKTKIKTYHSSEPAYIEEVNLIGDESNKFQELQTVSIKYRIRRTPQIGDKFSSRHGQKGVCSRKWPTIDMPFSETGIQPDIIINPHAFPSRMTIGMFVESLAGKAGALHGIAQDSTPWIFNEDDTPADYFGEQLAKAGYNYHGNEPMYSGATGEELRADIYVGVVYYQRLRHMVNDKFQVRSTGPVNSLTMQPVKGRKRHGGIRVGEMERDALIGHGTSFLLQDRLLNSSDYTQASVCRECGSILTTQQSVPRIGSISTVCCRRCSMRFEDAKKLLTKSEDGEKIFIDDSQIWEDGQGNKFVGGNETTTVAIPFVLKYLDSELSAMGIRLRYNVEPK

T2: Rrn7 (yeast, UniProt P40992 1-514)
T2 construct: Rrn7, TFIIB-like subunit of yeast Core Factor; Stood in the assay as a subunit of CF within the Pol I PIC; also called CF subunit Rrn7; TFIIB-related subunit Rrn7; source: E. coli BL21(DE3)Star pRARE, co-expressed as Core Factor, purified
T2 sequence: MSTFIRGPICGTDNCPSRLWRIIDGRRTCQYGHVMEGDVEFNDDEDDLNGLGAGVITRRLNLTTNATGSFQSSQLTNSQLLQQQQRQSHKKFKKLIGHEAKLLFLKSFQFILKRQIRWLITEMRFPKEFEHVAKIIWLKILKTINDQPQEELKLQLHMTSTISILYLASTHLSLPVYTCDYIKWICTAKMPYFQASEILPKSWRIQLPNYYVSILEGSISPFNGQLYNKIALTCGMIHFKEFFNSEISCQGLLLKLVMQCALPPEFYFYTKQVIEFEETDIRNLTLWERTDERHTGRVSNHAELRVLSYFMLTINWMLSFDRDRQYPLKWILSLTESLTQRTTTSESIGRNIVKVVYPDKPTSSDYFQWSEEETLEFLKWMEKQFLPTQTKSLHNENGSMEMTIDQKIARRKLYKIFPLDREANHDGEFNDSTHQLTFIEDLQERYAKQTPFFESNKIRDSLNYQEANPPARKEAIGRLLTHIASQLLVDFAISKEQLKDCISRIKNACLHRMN


Assays:
A135 = molecular target: T1, A135; assay: cryo-EM structure; Pol I (1.5 uM) and Rrn3 (3 uM) mixed 5 h at 4°C, then 70-bp transcription scaffold (-50 to +20, 15-nt mismatch, 10-nt RNA) 1 h, then CF (1.5 uM); dialysed from 300 to 100 mM potassium acetate, 50 mM HEPES-NaOH pH 7.5, 5 mM magnesium acetate, 10 mM DTT; 38,589 particles, 4.4 Å; details: both partners purified
Rrn7 = molecular target: T2, Rrn7; assay: cross-linking; purified Pol I PIC (50 ug, 1 mg/ml) with H12/D12 DSS at 2 and 5 mM, 30 min at 37°C; LC-MS/MS, xQuest, LD score at least 23; details: both partners purified

| binding result (A135) | binding result (Rrn7) | Binder |
| --- | --- | --- |
| binds | – | Rrn11 (natural protein, yeast, Rrn11, subunit of yeast Core Factor; Stood in the assay as a subunit of CF within the Pol I PIC; also called CF subunit Rrn11; source: E. coli BL21(DE3)Star pRARE, co-expressed as Core Factor, purified) MFEVPITLTNRKFAQRRKLKYQYINYISRRFDRISKKSTTTDSLPTPENSAAENNDEEEGQNSEAGTYRRSVLQQKKRRRERHWRSVVGEIYSTTESETDSQEEETEEGGEHDTGIDKEDSDEERKFWKKYEKPEKSFEIWRTVSSQNKQPINKQKMTYHNFKKIEKIPLRKMEIPLLHCTKENKLYFQSISRGLEPLKTSTSEVRNYRTRHIVTLTDLLHLNVSRHNWSLAYKIFATLIRIPGVQIKSLWGIGVEILDNLSNSSSGLDFLQWMCQIYSSKSRFVQNINYRSIVPPFQTGSRTHTAKFAITYLWSSLINCQKSMEPSSNIIDKPFDTENDLLQELIDKISEWVLTPPFMEDAEVWFIYASCHLLKADTLSRQFVNDNKNNDLIGLDRDIKINQVIKHIHYVRTFLKICLDKGGFAVPSRLIENQLKSFESRLYGEAQDIQERDVANVYDSIDNSSVENSFGDVYETNAEFLDTQLMDLSPEDNGLDEMHYSDEDSSE |
| – | binds | Rpb12 (natural protein, UniProt P40422 1-70, looked up, Rpb12, subunit of yeast RNA polymerase I; Stood in the assay as a subunit of Pol I within the PIC; source: purified from S. cerevisiae strain SC1613 as a subunit of Pol I) MSREGFQIPTNLDAAAAGTSQARTATLKYICAECSSKLSLSRTDAVRCKDCGHRILLKARTKRLVQFEAR |
